Test results published in article PMC11883000 (2025).
Read-outs that look alike come from different tables or passages of the source. Ends that are not written are not given here. Me2 = dimethylation (dimethyl-lysine); Me3 = trimethyl on lysine side chain

T1: ASH1L plant homeodomain (PHD) finger, wild type (aa 2579-2629) (human, UniProt Q9NR48 2579-2629)
T1 chain: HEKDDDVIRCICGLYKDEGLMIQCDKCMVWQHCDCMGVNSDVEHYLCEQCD

T2: ASH1L PHD finger-BAH domain (human, UniProt Q9NR48 2579-2834)
T2 chain: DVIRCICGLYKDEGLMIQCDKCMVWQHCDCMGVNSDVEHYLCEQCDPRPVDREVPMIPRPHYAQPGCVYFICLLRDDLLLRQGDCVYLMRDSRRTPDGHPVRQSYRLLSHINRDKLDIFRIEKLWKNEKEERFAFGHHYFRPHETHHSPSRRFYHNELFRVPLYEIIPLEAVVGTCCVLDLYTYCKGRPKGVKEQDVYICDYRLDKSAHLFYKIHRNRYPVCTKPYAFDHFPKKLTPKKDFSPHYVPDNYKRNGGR

T3: ASH1L PHD finger Y2693K (human, UniProt Q9NR48 2579-2629)
T3 chain: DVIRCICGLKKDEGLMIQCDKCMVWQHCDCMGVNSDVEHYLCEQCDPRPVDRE


Experiments:
[1] = molecular target: T1, ASH1L plant homeodomain (PHD) finger, …
[2] = molecular target: T1, ASH1L plant homeodomain (PHD) finger, …; test: MST
[3] = molecular target: T2, ASH1L PHD finger-BAH domain
[4] = molecular target: ASH1L PHD finger Q2601K (human, UniProt Q9NR48 2579-2629, Q2601K)
[5] = molecular target: ASH1L PHD finger D2603A (human, UniProt Q9NR48 2579-2629, D2603A)
[6] = molecular target: T3, ASH1L PHD finger Y2693K
[7] = molecular target: ASH1L PHD finger D2595A (human, UniProt Q9NR48 2579-2629, Substitution of D2595 with alanine)
[8] = molecular target: ASH1L PHD finger S2618A (human, UniProt Q9NR48 2579-2629, S2618A)
[9] = molecular target: ASH1L PHD finger D2584A (human, UniProt Q9NR48 2579-2629, Substitution of D2584 with alanine)

| Kd [1] | Kd [2] | Kd [3] | Kd [4] | Kd [5] | Kd [6] | Kd [7] | Kd [8] | Kd [9] | Binder |
| --- | --- | --- | --- | --- | --- | --- | --- | --- | --- |
| 1000 nM | – | – | – | – | – | – | – | – | ARTK(Me2)QTARKSTG [histone H3K4me2 peptide (aa 1-12 of H3)] |
| 1600 nM | 1100 nM | 1000 nM | 1000 nM | 2000 nM | 1800 nM | 6700 nM | 5900 nM | 4600 nM | ARTK(Me3)QTARKSTG [histone H3K4me3 peptide (aa 1-12 of H3)] |
